The values below come from publication PMC12022309, “A facultative plasminogen-independent thrombolytic enzyme from Sipunculus nudus” (Nature Communications, 2025).

Assay [1] deals with plasminogen, biotin-labeled (human). The assay can be described thus: BLI; GatorPrime (GatorPivot in the results), streptavidin (SA-XT) biosensors; biotin-labeled plasminogen or fibrinogen immobilised, snFPITE in solution; 30 °C, 1000 rpm; association 2–3 min, dissociation 2–5 min. On the technique in general: Biolayer interferometry detects binding as a change in optical thickness at a sensor tip.

Assay [2] deals with fibrinogen, biotin-labeled (UniProt P02671). Described as above.
A further assay deals with T1, snFPITE-n1 (snFPITE) (Phascolopsis gouldii, UniProt Z9UHO8WHJ2).
T1 construct: native, purified from S. nudus intestine / intestinal fluid by chromatography
T1 sequence (Z9UHO8WHJ2 1-239): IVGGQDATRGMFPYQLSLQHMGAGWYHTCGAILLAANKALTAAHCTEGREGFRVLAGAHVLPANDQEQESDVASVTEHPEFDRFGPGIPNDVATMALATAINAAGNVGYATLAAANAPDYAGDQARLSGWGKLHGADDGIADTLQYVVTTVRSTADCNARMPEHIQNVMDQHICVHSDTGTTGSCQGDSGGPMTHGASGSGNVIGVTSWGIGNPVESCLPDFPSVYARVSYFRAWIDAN
As to the kind of experiment: inhibition of fibrin lysis or plasminogen activation, SDS-PAGE. The conditions noted are these: 2.5 mM, 30 min pre-incubation; purified native snFPITE (called snFPITE-n1); enzyme also purified on Arg-Sepharose 4B. It counts as biochemical.

Sequence of fibrinogen, biotin-labeled (P02671 36-866, chain 1 of 3): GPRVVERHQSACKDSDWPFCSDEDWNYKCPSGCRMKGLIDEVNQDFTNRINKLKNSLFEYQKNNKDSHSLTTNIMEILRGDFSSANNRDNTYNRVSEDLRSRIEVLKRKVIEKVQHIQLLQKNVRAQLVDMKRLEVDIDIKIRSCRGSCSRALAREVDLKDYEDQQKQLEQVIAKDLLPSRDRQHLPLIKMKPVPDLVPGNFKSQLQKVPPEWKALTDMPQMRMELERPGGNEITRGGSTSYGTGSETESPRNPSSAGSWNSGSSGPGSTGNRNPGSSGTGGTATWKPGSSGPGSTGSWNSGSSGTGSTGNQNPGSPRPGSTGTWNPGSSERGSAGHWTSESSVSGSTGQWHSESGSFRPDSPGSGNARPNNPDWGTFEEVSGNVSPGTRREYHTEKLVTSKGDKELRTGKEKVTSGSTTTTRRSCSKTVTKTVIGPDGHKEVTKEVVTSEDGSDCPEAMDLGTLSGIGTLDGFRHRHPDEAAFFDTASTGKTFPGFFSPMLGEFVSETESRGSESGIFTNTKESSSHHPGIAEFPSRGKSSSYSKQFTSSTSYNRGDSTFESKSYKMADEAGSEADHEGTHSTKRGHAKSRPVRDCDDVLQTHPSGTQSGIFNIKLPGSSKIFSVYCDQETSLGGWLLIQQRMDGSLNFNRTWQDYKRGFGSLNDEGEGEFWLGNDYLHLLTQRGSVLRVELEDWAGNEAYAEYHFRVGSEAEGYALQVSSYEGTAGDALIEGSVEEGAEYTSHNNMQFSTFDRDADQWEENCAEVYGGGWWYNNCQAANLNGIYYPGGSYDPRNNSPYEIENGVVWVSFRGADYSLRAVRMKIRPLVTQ
Sequence of fibrinogen, biotin-labeled (P02675 45-491, chain 2 of 3, further chain): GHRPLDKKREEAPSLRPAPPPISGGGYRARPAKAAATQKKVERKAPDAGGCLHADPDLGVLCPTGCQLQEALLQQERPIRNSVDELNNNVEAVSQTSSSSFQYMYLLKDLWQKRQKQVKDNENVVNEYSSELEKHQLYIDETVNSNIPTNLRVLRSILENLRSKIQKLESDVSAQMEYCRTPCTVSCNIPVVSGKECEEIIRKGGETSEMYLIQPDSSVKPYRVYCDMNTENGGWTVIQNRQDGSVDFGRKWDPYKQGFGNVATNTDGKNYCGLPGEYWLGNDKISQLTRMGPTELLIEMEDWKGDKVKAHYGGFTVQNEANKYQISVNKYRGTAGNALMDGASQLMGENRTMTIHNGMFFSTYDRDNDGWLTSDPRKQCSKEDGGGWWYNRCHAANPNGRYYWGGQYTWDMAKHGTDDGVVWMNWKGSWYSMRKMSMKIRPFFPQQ
Sequence of fibrinogen, biotin-labeled (P02679 27-453, chain 3 of 3, further chain): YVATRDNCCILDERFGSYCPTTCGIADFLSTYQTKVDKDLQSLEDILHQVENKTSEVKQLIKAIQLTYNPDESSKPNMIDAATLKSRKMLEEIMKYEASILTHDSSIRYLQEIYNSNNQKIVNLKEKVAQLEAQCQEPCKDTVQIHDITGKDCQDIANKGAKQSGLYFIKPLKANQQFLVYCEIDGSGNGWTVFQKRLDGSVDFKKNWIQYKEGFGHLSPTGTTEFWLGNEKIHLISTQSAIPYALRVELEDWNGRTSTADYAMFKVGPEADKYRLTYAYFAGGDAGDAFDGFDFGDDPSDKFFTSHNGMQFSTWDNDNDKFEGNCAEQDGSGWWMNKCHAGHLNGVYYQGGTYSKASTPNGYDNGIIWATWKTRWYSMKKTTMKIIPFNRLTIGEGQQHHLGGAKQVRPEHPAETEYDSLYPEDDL

For “small facultative plasminogen-independent thrombolytic enzyme (snFPITE) from Sipunculus nudus”, the results for the Kd in assay [1] and in assay [2] were 54.7 nM and 0.133 nM, respectively.

With `N=C(N)NCCC[C@H](N)C(=O)O` [arginine], the “inhibition of fibrin lysis or plasminogen activation, SDS-PAGE” value against snFPITE-n1 (snFPITE) is reported as “Lys or Arg inhibited snFPITE-n1”.

A word on the Kd: it is a measure of binding affinity in units of concentration. Read a low Kd as a tighter complex.
